Measured values published in publication PMC11467380.
Like-named read-outs stand apart in the source and are kept apart here.

Key:
[1] = molecular target: U1 snRNP ΔU1-C, biotinylated on SmF and Cy5-labelled on the U1 snRNA (CoSMoS form) (human) (UniProt P08621); assay: colocalization single molecule spectroscopy
[2] = molecular target: U1 snRNP ΔU1-C, biotinylated on SmF and Cy5-labelled on the U1 snRNA (CoSMoS form) (human) (UniProt P08621); assay: colocalization single molecule spectroscopy; remark: listed apart in the source
[3] = molecular target: T1, minimal U1 snRNP without U1-C (CoSMoS);U1-C zinc finger (U1-C_61) (human;human, UniProt P08621;P62316;P62318;P14678;P62306;P62304;P62308;P09234 …, internal_change|); assay: single-molecule CoSMoS
[4] = molecular target: minimal U1 snRNP with U1-C (SPR) (human, UniProt P08621;P62316;P62318;P14678;P62306;P62304;P62308;P09234 …, internal_change); assay: SPR
[5] = molecular target: T1, minimal U1 snRNP without U1-C …; assay: single-molecule CoSMoS; remark: listed apart in the source

U1-C_61 (zinc finger region of U1-C), sequence (P09234 1-61): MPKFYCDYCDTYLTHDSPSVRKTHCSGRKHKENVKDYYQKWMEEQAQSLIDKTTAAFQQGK

Molecule: U1-C_61 (zinc finger region of U1-C) (from UniProt P09234 1-61) (domain or fragment)
- EC50 [1]: 1.3 nM
- EC50 [2]: 1.8 nM

Molecule: ACACAGGUAAGUUAACA (ssRNA) [9bp]
- Kd [3]: ~0.12 nM

Molecule: CAGAGUAAGUAU (ssRNA) [11bp-1A]
- Kd [4]: 2.7 nM

Molecule: CAGGUAAGUAU (ssRNA) [11bp]
- Kd [4]: 0.203 nM

Molecule: ACACAGAGUAAGUUAACA (ssRNA) [9bp-1A]
- Kd [5]: 1.2 nM
